The record followed here is PMC9826837 (The Journal of Biological Chemistry, 2022).

This test concerns the target rat cardiac troponin I (cTnI), Ser22/23 bisphosphorylated (rat, UniProt P23693 1-211, phosphoserine at 22 and 23). In words: SEC-MALS.

B1: rat cardiac troponin T (cTnT) (natural protein)
chain: not shown
Regarding B1, the “stoichiometry N” value is 1.
